In the supplement of paper PMC12042874 one finds amyloid nucleation score data, which are given here for 130 substances.

The nature of the data set: amyloid nucleation score (Sup35N fusion, yeast selection) (log enrichment); library NNK3; higher = more nucleation; inactive = no reads after selection. In short, it runs like this: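 Output and input plasmid inserts were sequenced by Illumina after psi-negative yeast carrying Sup35N fused to peptides of 20 random codons had been induced 24 hours with 100 μM copper sulfate and grown 7 days at 30°C on medium lacking adenine and uracil. The nucleation score is the DiMSum log enrichment of output over input reads, centred on the mode score of non-aggregating sequences. Sequences with under 100 input reads were excluded.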

± gives the uncertainty stated by the source.

On to KRKQVSFTH, for which the amyloid nucleation score result is “inactive”.

As for CLVSLVFRFIVY, the amyloid nucleation score result was “inactive”.

SAFKAKL: the amyloid nucleation score entry is “inactive”.

Regarding MVRNRNYSLIYGWVPIQDEE, the amyloid nucleation score turned out to be 1.82 ± 0.099.

The substance LGSMAINCNERCITWCHRFI showed an amyloid nucleation score of 0.668 ± 0.25.

On to YLNSDRSYEMDTFRFGYLLY, for which the amyloid nucleation score result is “inactive”.

On to GIRCSLVY, for which the amyloid nucleation score result was “inactive”.

As to LYIIFERD, the amyloid nucleation score entry is “inactive”.

Take RHMFVSSSKRWKFSSNTYRT: the amyloid nucleation score result was “inactive”.

For DVVLTNVFDCML, the amyloid nucleation score entry is “inactive”.

Substance FLLEYYVCMFAVWSIWGMGH yielded an amyloid nucleation score of 0.317 ± 0.75.

For FLRLKFRAYDP, the amyloid nucleation score amounted to 1.01 ± 0.11.

For the substance TGTFDRWDPVTAGLPTGLGE, the amyloid nucleation score entry is “inactive”.

Take SSCTLVKAGLVNFLRARYSG: the amyloid nucleation score result is “inactive”.

SGNDISCPATSIHFRVGVRS: the amyloid nucleation score result was “inactive”.

As to PFWWPRKQLYVSQSRKTTAS, the amyloid nucleation score entry is “inactive”.

For the substance YALSVLVSRYQWSGWHYLYP, the amyloid nucleation score entry was “inactive”.

For SNYGTYRRNSPHSCLRTFWR, the amyloid nucleation score result is “inactive”.

As for APLEFLSSLDWIRPELALTF, the amyloid nucleation score entry is “inactive”.

For the substance SVIASRSLIYD, the amyloid nucleation score result is “inactive”.

For the substance ILAHPCSYRFGSWGRLINRN, the amyloid nucleation score entry is “inactive”.

With KDTRIQLVNNFICGDSLE, the amyloid nucleation score result is “inactive”.

The substance LSNVVGRATGKRTTSYHEDA returned an amyloid nucleation score of 0.43 ± 0.17.

Regarding YRYMVRITCGCFHAVNDT, the amyloid nucleation score was 1.19 ± 0.14.

MLHFG: the amyloid nucleation score result was “inactive”.

Consider SGISIVIPFPRGVQMT, for which the amyloid nucleation score is -0.47 ± 1.

FRMTPHIGALSNRLHVTTWL yielded an amyloid nucleation score of -0.226 ± 0.7.

Turning to CTFDWVLITLVEGSRAIW, the amyloid nucleation score entry was “inactive”.

On to FCTFSLRHYVTKNGPVCPTK, for which the amyloid nucleation score result was “inactive”.

On to GADMKTRRSARGLMWTMGSS, for which the amyloid nucleation score result was “inactive”.

In the case of ISMLTVVSN, the amyloid nucleation score result is “inactive”.

Take WNGKGLSSGTLSISRKT: the amyloid nucleation score result was “inactive”.

For YCAYLLRSLWLGTAWEWWRQ, the amyloid nucleation score entry was “inactive”.

Turning to VRLYMYMTILIGNVDLFVEG, the amyloid nucleation score result is “inactive”.

Take ITYFLWAVFYDGFSMSFFVA: the amyloid nucleation score entry is “inactive”.

For the substance VRFCGLLIGQVTWFLAVLEY, the amyloid nucleation score entry was “inactive”.

Regarding KVCGCSILLLKLRGVNRVVS, the amyloid nucleation score result is “inactive”.

Turning to LISAYVGWDICLASML, the amyloid nucleation score result is “inactive”.

For the substance VVCFFYNVF, the amyloid nucleation score worked out at 2.36 ± 0.055.

As for STTIGF, the amyloid nucleation score result was “inactive”.

Consider HKSVLFNTRSSCRTSVLIVR, for which the amyloid nucleation score entry was “inactive”.

In the case of TGKYRAVVLAC, the amyloid nucleation score entry is “inactive”.

For the substance CLFREA, the amyloid nucleation score entry was “inactive”.

As for YSVMSNHETIYYMSVS, the amyloid nucleation score result was “inactive”.

Consider KVGAGIDIISFIRNLILALP, for which the amyloid nucleation score result was “inactive”.

YFNLSRIMLNELMCLVIIRQ: the amyloid nucleation score entry is “inactive”.

As to LRLQRDPCSNSLSVLSCIFC, the amyloid nucleation score was found to be 2.63 ± 0.06.

As to FRNVGMLGSNLGFGINNDIN, the amyloid nucleation score result was “inactive”.

As to SLAINSYVCMYIHFQTTMRD, the amyloid nucleation score entry is “inactive”.

The substance ICISKRYWHDIAFCIGYSNE came in with an amyloid nucleation score of 1.29 ± 0.12.

For the substance HCDCTFYSSLGFIGGTWDSC, the amyloid nucleation score entry is “inactive”.

With PGVYKNVAFLR, the amyloid nucleation score entry is “inactive”.

Regarding RPWHPLLTSDVVNCWLKIRV, the amyloid nucleation score entry is “inactive”.

Consider ARFMC, for which the amyloid nucleation score result is “inactive”.

Regarding SSYYFFCDGLIFELLSQDNS, the amyloid nucleation score result is “inactive”.

WCESDVMDFGSYFADFLS: the amyloid nucleation score result is “inactive”.

Regarding FSSRVRTMPLVGVM, the amyloid nucleation score entry is “inactive”.

In the case of NYARTFSRKRMVQKTRSGKG, the amyloid nucleation score is -0.077 ± 0.4.

For the substance YGRLCDALKGSWYCSIYHGS, the amyloid nucleation score worked out at 1.79 ± 0.074.

Consider INYSWFDLSMALTK, for which the amyloid nucleation score result is “inactive”.

For the substance MMNILILCVKGMHFGRHKYV, the amyloid nucleation score result is “inactive”.

Take NWLVSWFLFFPNSPLFCYHW: the amyloid nucleation score entry is “inactive”.

With SLPCSKCAVKLFL, the amyloid nucleation score entry is “inactive”.

For YVWMKGHNHYFFESMDVYLM, the amyloid nucleation score result was “inactive”.

In the case of LCRKPFDVGLGRV, the amyloid nucleation score result is “inactive”.

TLDFGF: the amyloid nucleation score result was “inactive”.

With SRVLTYDT, the amyloid nucleation score entry was “inactive”.

For the substance SYTKDVV, the amyloid nucleation score entry was “inactive”.

Substance ISRVCSNFLGLDVTFLMLLT showed an amyloid nucleation score of 1.42 ± 0.14.

For FFIFRDVSTVDSLGPLYRLM, the amyloid nucleation score was 1.14 ± 0.2.

Consider FDGTGRLRF, for which the amyloid nucleation score is -0.629 ± 1.2.

As to RRLTGFMQVVRKNWVLGELA, the amyloid nucleation score worked out at 1.04 ± 0.21.

With VACTVSEAYKCTLIWTHLVR, the amyloid nucleation score entry is “inactive”.

Regarding ASTSD, the amyloid nucleation score result was “inactive”.

On to MWLSTVDRHHINSQALENVD, for which the amyloid nucleation score result is “inactive”.

As for SITTEVFDSQVNKLRELDGW, the amyloid nucleation score entry was “inactive”.

On to WCNVRYLVDMRFFTTVGVKL, for which the amyloid nucleation score entry is “inactive”.

Turning to WLRLSL, the amyloid nucleation score entry was “inactive”.

Take NDQAYMFYIGVYTTLCIGLK: the amyloid nucleation score entry is “inactive”.

Regarding YWVTLFRSARVWMITLNLFD, the amyloid nucleation score entry is “inactive”.

Regarding LCWTVVIHVRTAVRIWLTSR, the amyloid nucleation score entry is “inactive”.

With CNPQTFSFVLMVRLCSKSGV, the amyloid nucleation score entry was “inactive”.

MSFSPQKVVAHFCYWSCMRS: the amyloid nucleation score result is “inactive”.

Turning to VYAVIDWRDLCF, the amyloid nucleation score result was “inactive”.

For the substance SSNDDFWIKGGQCEYIRFRL, the amyloid nucleation score result was “inactive”.

In the case of FATFYVQQGFGNFAPKAYS, the amyloid nucleation score result is “inactive”.

With LFYIWQSFQFRN, the amyloid nucleation score result was “inactive”.

As to LSFNTVDSPGRIYFRIWYGV, the amyloid nucleation score was 1.07 ± 0.14.

ASSRSHPV: the amyloid nucleation score result is “inactive”.

For IGFCKDLVTCRTDYYAQLDR, the amyloid nucleation score result is “inactive”.

Regarding RFSRRYMHGFS, the amyloid nucleation score result was “inactive”.

With LVGFRTGTALLDQMAL, the amyloid nucleation score result is “inactive”.

Regarding QCDVCVCCVARAEAVRRILG, the amyloid nucleation score was 2.33 ± 0.075.

SKFSCIRSYYG: the amyloid nucleation score result is “inactive”.

For the substance FIMLQSPTNSSQILMPTQFT, the amyloid nucleation score result was “inactive”.

QIALSYSCIITRCVCNLCQR had an amyloid nucleation score of 3.12 ± 0.056.

Turning to FHLKKHWGKHGYFFMEDRRT, the amyloid nucleation score result is “inactive”.

Take FPSSMGRQYIGVCKYLSDPP: the amyloid nucleation score entry is “inactive”.

Turning to QFVCHHGSPAFPNDGVAKLL, the amyloid nucleation score entry is “inactive”.

For RYGLVVIAVVSAVHDGDACS, the amyloid nucleation score result was “inactive”.

Regarding WLVSRIVHSLVVVIFDKDEG, the amyloid nucleation score entry is “inactive”.

Regarding KWNRLLVMRLAVIECRARVA, the amyloid nucleation score was 0.033 ± 0.9.

PHNLNGPS: the amyloid nucleation score is -0.68 ± 1.9.

For KLLLMGCRDVYFSYRIFM, the amyloid nucleation score amounted to 3 ± 0.054.

As to LKRCRLQMAGYELSWDQGTM, the amyloid nucleation score result is “inactive”.

Consider HFVLWHLKGSQFGGSVAVIQ, for which the amyloid nucleation score entry was “inactive”.

On to YYVRRIMT, for which the amyloid nucleation score result was “inactive”.

On to TGMNNFMKCLGYMSAHVRLI, for which the amyloid nucleation score result was “inactive”.

The substance FSPMYFNWMIGVVCSGIVGN came in with an amyloid nucleation score of -0.349 ± 0.8.

Turning to VKGIEVNRLMFEERISGCYV, the amyloid nucleation score result was “inactive”.

As to NYVICVYFMAGVSACMTLLV, the amyloid nucleation score entry is “inactive”.

Take RFSTGDIWRYPDGNMFWTSL: the amyloid nucleation score entry was “inactive”.

PGDTQITYTGLSEFWCPGVA: the amyloid nucleation score entry was “inactive”.

As for VSNYTSRNNYVNCQLELTRA, the amyloid nucleation score entry is “inactive”.

As for TPEVISSV, the amyloid nucleation score result was “inactive”.

ISQFHYLGRIST: the amyloid nucleation score result was “inactive”.

As for LVYKLRGRCYERLYKWRLCD, the amyloid nucleation score entry was “inactive”.

Turning to KNVTFTCHWTSKSLNMYYEE, the amyloid nucleation score came out at 0.512 ± 0.29.

Take YSLFGWVSMFGC: the amyloid nucleation score result was “inactive”.

As to TLIQFSLMCVYFSDFLPKAF, the amyloid nucleation score result is “inactive”.

Turning to VMQYLLMAEKNQLRLQRFAR, the amyloid nucleation score entry was “inactive”.

Turning to MSPFADKRHLADILCVHGS, the amyloid nucleation score result is “inactive”.

In the case of PSKFVHKSDLCDNGYLPCTR, the amyloid nucleation score result was “inactive”.

For the substance WSSTRLPSMSPCGFIHQGYI, the amyloid nucleation score result was “inactive”.

With RDLMEGRTTLWMNSGTAIWA, the amyloid nucleation score entry was “inactive”.

Consider LTIINRFEFRQKNINGTYRK, for which the amyloid nucleation score was 2.73 ± 0.068.

Take NMYLSMSLIFNTNYLPGMIS: the amyloid nucleation score result is “inactive”.

QMSCNQRNISMGFKIGRFYM: the amyloid nucleation score was 1.5 ± 0.061.

As to SSASYVHCDFYIFGGLAPSN, the amyloid nucleation score came to 2.8 ± 0.063.

On to IGGEYGFLSCYSIGVTTFYV, for which the amyloid nucleation score result was “inactive”.
